Common to all, as to assay: SPR
(In general: Surface plasmon resonance follows binding to a sensor surface in real time, without labels.)

In assay [1] the target is AZD8895 (tixagevimab) (human).
In assay [2] the target is AZD1061 (cilgavimab) (human).
In the next assay the target is AZD8895-TM (human).
For a further assay, the target named is AZD1061-TM (human).

Consider “human neonatal Fc receptor (from UniProt P55899;P61769)”, for which the Kd – broadly, the free concentration of one partner at which half of the binding sites on the other are occupied at equilibrium, for simple one-to-one binding – in assay [1] amounted to 272 nM; in assay [2], 283 nM; with AZD8895-TM (human), 2400 nM; in the assay with AZD1061-TM (human), 2360 nM.

These data come from doi:10.1101/2021.08.30.21262666.
